Test results from publication PMC12117155 (Nature Communications, 2025).

Target: randomly biotinylated GCase (Velaglucerase) (human, UniProt P04062, biotin, randomly on lysine residues (EZ-Link Sulfo-NHS-LC-Biotin); glycosylated)
Assay: BLI

Chain of randomly biotinylated GCase (Velaglucerase) (P04062 40-536): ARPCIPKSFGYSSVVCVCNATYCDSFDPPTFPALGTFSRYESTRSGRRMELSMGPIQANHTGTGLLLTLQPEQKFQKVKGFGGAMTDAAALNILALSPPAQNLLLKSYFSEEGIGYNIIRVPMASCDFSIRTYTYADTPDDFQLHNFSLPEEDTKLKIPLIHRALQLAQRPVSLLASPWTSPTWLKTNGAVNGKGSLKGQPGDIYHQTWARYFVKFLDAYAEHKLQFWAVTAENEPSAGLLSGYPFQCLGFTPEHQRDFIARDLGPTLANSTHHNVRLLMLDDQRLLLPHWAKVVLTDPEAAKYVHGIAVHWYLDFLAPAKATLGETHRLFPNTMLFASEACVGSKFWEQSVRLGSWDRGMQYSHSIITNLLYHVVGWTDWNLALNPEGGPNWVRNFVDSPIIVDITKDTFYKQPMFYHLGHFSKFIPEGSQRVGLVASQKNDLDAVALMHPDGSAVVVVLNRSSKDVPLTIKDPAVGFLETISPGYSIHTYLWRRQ

Kd: < 5 nM
B1: Nb1, C-terminally LPETGG-His6-EPEA-tagged (pHEN29) (VHH)
VHH: QVQLVESGGGLVQPGGSLRLSCAASGFTLDYYAIGWFRQAPGKEREGVSCISSSDGSTYYADSAKGRFTISRDNAKNTVYLQMNSLKPEDTAVYYCATDRGQCTYYSSGYYRDLRWYDYWGQGTQVTVSS
